This experiment concerns the target T1, recombinant human His-tagged p53 protein (residues 1–312) (human, UniProt P04637 1-312).
T1 construct: p53, human, residues 1-312; source: final dialysis with 0.2 mM ZnCl2
The experiment is described as follows: NMR antagonist-induced dissociation assay (AIDA), 1D proton spectra; Trp NHε side-chain signals of the MDM2–p53 complex; 0.1 mM proteins, 25 °C, 20 mM Tris-HCl, 150 mM KCl, pH 7.4, 5 mM β-mercaptoethanol, 0.02% NaN3; also after RM37 (0.2 mM). Particulars: both partners purified.

T1 sequence (P04637 1-312): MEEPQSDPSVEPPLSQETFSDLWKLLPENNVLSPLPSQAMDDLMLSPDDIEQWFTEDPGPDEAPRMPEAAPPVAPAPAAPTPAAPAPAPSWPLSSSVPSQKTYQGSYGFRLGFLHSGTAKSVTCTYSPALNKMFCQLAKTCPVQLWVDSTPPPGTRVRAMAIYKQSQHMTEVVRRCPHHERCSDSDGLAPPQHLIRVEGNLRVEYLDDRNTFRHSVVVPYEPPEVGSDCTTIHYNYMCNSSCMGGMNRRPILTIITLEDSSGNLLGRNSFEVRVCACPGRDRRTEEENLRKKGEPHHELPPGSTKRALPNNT

B1: recombinant human His-tagged N-terminal region of MDM2 (residues 1–118) (domain or fragment, UniProt Q00987 1-118, looked up)
chain: MCNTNMSVPTDGAVTTSQIPASEQETLVRPKPLLLKLLKSVGAQKDTYTMKEVLFYLGQYIMTKRLYDEKQQHIVYCSNDLLGDLFGVPSFSVKEHRKIYTMIYRNLVVVNQQESSDS
notes: MDM2 (HDM2), human, N-terminal region, residues 1-118; Cloned in a derivative of the vector pET-46Ek/LIC (Novagen); that vector probably adds the His tag at the N-terminus (surmised); No cleavage of the tag is told; also called HDM2
With B1, the binding result is reported as “binds”.

The values above are taken from publication PMC9692514, “Identification of a Novel p53 Modulator Endowed with Antitumoural and Antibacterial Activity through a Scaffold Repurposing Approach” (Pharmaceuticals, 2022).
